According to PMC4332690:

Key:
[1] = molecular target: PIDD death domain (PIDD-DD), human, residues 778-883 (human) (UniProt Q9HB75); test: native MS; nanoESI-MS, positive ion mode; 15 μM purified complex in 50 mM ammonium acetate pH 7.8
[2] = molecular target: PIDD death domain (PIDD-DD), human, residues 778-883 (human) (UniProt Q9HB75); test: SEC-MALS; as a1 but total protein loaded 1.5 mg/mL (lowest concentration; some subunit dissociation)

Sequence of UniProt Q9HB75 (Q9HB75 778-883): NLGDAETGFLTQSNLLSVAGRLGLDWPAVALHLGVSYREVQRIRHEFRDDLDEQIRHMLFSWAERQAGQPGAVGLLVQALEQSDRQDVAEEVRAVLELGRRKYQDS

For “RAIDD death domain (RAIDD-DD), human, residues 99-199, wild type (from UniProt P78560 99-199) (domain or fragment)”, the population of the 5:5 complex [1] was 28%, the population of the 6:5 complex [1] was 43% and the population of the 7:5 complex [1] was 29%. For the same substance, the stoichiometry N (RAIDD-DD per PIDD-DD (5:5)) [1] was 1, the stoichiometry N (RAIDD-DD per PIDD-DD (6:5)) [1] was 1.2 and the stoichiometry N (RAIDD-DD per PIDD-DD (7:5)) [1] was 1.4.

Substance “RAIDD-DD (E188K) (from UniProt P78560 99-199) (domain or fragment)” has a stoichiometry N (RAIDD-DD per PIDD-DD (R4:P4)) [2] of 1, a population of the 5:4 complex [1] of 13% and a population of the 5:5 complex [1] of 87%. For the same substance, the stoichiometry N (RAIDD-DD per PIDD-DD (5:4)) [1] was 1.25 and the stoichiometry N (RAIDD-DD per PIDD-DD (5:5)) [1] was 1.
